# Measurements published in IntAct's records for PubMed 22820947.
# B1: ATP-dependent helicase SGS1 (Saccharomyces cerevisiae), P35187 (parent)
# chain: MVTKPSHNLRREHKWLKETATLQEDKDFVFQAIQKHIANKRPKTNSPPTTPSKDECGPGTTNFITSIPASGPTNTATKQHEVMQTLSNDTEWLSYTATSNQYADVPMVDIPASTSVVSNPRTPNGSKTHNFNTFRPHMASSLVENDSSRNLGSRNNNKSVIDNSSIGKQLENDIKLEVIRLQGSLIMALKEQSKLLLQKCSIIESTSLSEDAKRLQLSRDIRPQLSNMSIRIDSLEKEIIKAKKDGMSKDQSKGRSQVSSQDDNIISSILPSPLEYNTSSRNSNLTSTTATTVTKALAITGAKQNITNNTGKNSNNDSNNDDLIQVLDDEDDIDCDPPVILKEGAPHSPAFPHLHMTSEEQDELTRRRNMRSREPVNYRIPDRDDPFDYVMGKSLRDDYPDVEREEDELTMEAEDDAHSSYMTTRDEEKEENELLNQSDFDFVVNDDLDPTQDTDYHDNMDVSANIQESSQEGDTRSTITLSQNKNVQVILSSPTAQSVPSNGQNQIGVEHIDLLEDDLEKDAILDDSMSFSFGRQHMPMSHSDLELIDSEKENEDFEEDNNNNGIEYLSDSDLERFDEERENRTQVADIQELDNDLKIITERKLTGDNEHPPPSWSPKIKREKSSVSQKDEEDDFDDDFSLSDIVSKSNLSSKTNGPTYPWSDEVLYRLHEVFKLPGFRPNQLEAVNATLQGKDVFVLMPTGGGKSLCYQLPAVVKSGKTHGTTIVISPLISLMQDQVEHLLNKNIKASMFSSRGTAEQRRQTFNLFINGLLDLVYISPEMISASEQCKRAISRLYADGKLARIVVDEAHCVSNWGHDFRPDYKELKFFKREYPDIPMIALTATASEQVRMDIIHNLELKEPVFLKQSFNRTNLYYEVNKKTKNTIFEICDAVKSRFKNQTGIIYCHSKKSCEQTSAQMQRNGIKCAYYHAGMEPDERLSVQKAWQADEIQVICATVAFGMGIDKPDVRFVYHFTVPRTLEGYYQETGRAGRDGNYSYCITYFSFRDIRTMQTMIQKDKNLDRENKEKHLNKLQQVMAYCDNVTDCRRKLVLSYFNEDFDSKLCHKNCDNCRNSANVINEERDVTEPAKKIVKLVESIQNERVTIIYCQDVFKGSRSSKIVQANHDTLEEHGIGKSMQKSEIERIFFHLITIRVLQEYSIMNNSGFASSYVKVGPNAKKLLTGKMEIKMQFTISAPNSRPSTSSSFQANEDNIPVIAQKSTTIGGNVAANPPRFISAKEHLRSYTYGGSTMGSSHPITLKNTSDLRSTQELNNLRMTYERLRELSLNLGNRMVPPVGNFMPDSILKKMAAILPMNDSAFATLGTVEDKYRRRFKYFKATIADLSKKRSSEDHEKYDTILNDEFVNRAAASSNGIAQSTGTKSKFFGANLNEAKENEQIINQIRQSQLPKNTTSSKSGTRSISKSSKKSANGRRGFRNYRGHYRGRK
# Variants of: B1
# Details: with rad53_yeast RAD53, P22216
# rad53_yeast RAD53, P22216, sequence (P22216 whole entry): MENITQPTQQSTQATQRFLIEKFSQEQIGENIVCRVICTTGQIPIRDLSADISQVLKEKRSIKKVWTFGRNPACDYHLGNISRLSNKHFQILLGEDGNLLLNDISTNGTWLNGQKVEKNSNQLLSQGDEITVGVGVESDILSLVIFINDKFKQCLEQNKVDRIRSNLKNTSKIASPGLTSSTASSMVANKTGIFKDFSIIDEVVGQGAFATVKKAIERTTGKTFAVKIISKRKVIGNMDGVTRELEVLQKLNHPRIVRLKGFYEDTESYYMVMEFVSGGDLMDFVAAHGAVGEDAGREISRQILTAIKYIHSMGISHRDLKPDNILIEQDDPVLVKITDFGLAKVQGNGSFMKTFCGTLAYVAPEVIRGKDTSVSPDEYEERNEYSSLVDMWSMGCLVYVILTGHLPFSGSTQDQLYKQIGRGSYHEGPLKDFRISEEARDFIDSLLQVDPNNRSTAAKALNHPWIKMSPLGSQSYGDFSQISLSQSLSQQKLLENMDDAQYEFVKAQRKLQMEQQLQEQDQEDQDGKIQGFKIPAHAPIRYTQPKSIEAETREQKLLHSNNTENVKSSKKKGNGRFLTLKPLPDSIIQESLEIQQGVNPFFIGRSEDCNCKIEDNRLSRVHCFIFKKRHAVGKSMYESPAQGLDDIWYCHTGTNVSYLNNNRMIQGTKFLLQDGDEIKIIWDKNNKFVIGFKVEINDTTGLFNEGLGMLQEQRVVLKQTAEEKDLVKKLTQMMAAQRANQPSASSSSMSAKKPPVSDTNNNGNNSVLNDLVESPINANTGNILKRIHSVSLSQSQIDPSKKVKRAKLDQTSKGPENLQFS
row,Variant,effect of a mutation on the interaction
1,T451A,decreasing interaction
2,S470A,decreasing interaction

# Now from value to variant:
row,effect of a mutation on the interaction,Variant
1,decreasing interaction,S482A
2,decreasing interaction,T585A
